Key:
Experiment in all cases: cell-based or functional assay
[1] = target: human glucagon receptor (human) (UniProt P47871)
[2] = target: T1, human GIP receptor (human) (UniProt P48546)
T1 sequence (looked up): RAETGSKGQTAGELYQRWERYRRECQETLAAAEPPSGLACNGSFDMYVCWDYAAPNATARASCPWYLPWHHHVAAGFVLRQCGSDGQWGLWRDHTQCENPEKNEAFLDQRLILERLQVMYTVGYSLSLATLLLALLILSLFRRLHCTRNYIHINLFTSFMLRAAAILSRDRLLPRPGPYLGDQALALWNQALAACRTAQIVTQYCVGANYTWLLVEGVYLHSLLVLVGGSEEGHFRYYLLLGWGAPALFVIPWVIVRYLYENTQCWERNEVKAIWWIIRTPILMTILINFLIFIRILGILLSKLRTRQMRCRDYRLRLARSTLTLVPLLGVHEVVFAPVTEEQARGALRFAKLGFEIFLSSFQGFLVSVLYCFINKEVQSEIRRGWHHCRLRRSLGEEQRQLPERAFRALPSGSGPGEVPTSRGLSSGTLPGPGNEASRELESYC

[3] = target: hGLP-1R (Homo sapiens, UniProt P43220)
[4] = target: human GLP-1 receptor (human, UniProt P43220 24-463)
[5] = target: T2, human GIP receptor (human, UniProt P48546 22-466)
T2 sequence (looked up): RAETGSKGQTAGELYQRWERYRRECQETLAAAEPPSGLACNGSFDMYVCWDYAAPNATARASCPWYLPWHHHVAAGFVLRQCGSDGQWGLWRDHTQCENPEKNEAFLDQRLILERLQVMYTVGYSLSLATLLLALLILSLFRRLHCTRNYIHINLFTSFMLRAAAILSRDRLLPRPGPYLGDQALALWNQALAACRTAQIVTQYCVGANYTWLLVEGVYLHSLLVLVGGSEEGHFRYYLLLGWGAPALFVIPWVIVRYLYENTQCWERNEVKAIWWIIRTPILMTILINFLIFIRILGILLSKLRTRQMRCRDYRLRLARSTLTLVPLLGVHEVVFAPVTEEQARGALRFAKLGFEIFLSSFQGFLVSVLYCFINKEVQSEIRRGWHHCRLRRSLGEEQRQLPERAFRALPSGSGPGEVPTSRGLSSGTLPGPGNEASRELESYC

Row | Molecule | cAMP EC50 (1.0% HSA) [1] | cAMP EC50 (1.0% HSA) [2] | cAMP Emax (1.0% HSA) [2] | cAMP EC50 (1.0% HSA) [3] | cAMP Emax (1.0% HSA) [3] | cAMP EC50 [1] | cAMP EC50 [2] | cAMP Emax [2] | cAMP EC50 [3] | cAMP Emax [3] | cAMP EC50 (1.0% HSA) [4] | cAMP EC50 (1.0% HSA) [5]
1 | Y-Aib-EGT-αMeF(2F)-TSD-4Pal-SI-αMeL-LD-Orn-K((2-[2-(2-Amino-ethoxy)-ethoxy]-acetyl)2-(γ-Glu)-CO-(CH2)12-CO2H)AQ-Aib-EFI-(D-Glu)-αMeY-LIEGGK((2-[2-(2-Amino-ethoxy)-ethoxy]-acetyl)2-(γ-Glu)-CO-(CH2)12-CO2H)SSG-Orn-PPP-Orn-NH2 (peptide) | > 9950 nM | 1.25 nM | 96.5% | 34.6 nM | 102% |  |  |  |  |  |  | 
2 | Y-Aib-EGT-αMeF(2F)-TSD-4Pal-SI-αMeL-LD-Orn-K((2-[2-(2-Amino-ethoxy)-ethoxy]-acetyl)2-(γ-Glu)-CO-(CH2)12-CO2H)AQ-Aib-EFI-(D-Glu)-αMeY-LIEGGK((2-[2-(2-Amino-ethoxy)-ethoxy]-acetyl)2-(γ-Glu)-CO-(CH2)12-CO2H)SSG-Orn-PPPS-NH2 (peptide) | > 9950 nM | 1.15 nM | 94.1% | 40.8 nM | 98.2% |  |  |  |  |  |  | 
3 | Y-Aib-EGT-αMeF(2F)-TSD-4Pal-SI-αMeL-LD-Orn-K((2-[2-(2-Amino-ethoxy)-ethoxy]-acetyl)2-(γ-Glu)-CO-(CH2)12-CO2H)AQ-Aib-EFIK((2-[2-(2-Amino-ethoxy)-ethoxy]-acetyl)2-(γ-Glu)-CO-(CH2)12-CO2H)-αMeY-LIEG-Orn-NH2 (peptide) | > 9950 nM | 1.55 nM | 82.8% | 28.9 nM | 112% |  |  |  |  |  |  | 
4 | Y-Aib-EGT-αMeF(2F)-TSD-4Pal-SI-αMeL-LD-Orn-K((2-[2-(2-Amino-ethoxy)-ethoxy]-acetyl)2-(γ-Glu)-CO-(CH2)12-CO2H)AQ-Aib-EFIK((2-[2-(2-Amino-ethoxy)-ethoxy]-acetyl)2-(γ-Glu)-CO-(CH2)12-CO2H)-αMeY-…-NH2 (peptide) | > 9950 nM | 1.37 nM | 89% | 19.1 nM | 106% |  |  |  |  |  |  | 
5 | Y-Aib-EGT-αMeF(2F)-TSD-4Pal-SI-αMeL-LD-Orn-K((2-[2-(2-Amino-ethoxy)-ethoxy]-acetyl)2-(γ-Glu)-CO-(CH2)14-CH3)AQ-Aib-EFI-(D-Glu)K((2-[2-(2-Amino-ethoxy)-ethoxy]-acetyl)2-(γ-Glu)-CO-(CH2)14-CH3)…-NH2 (peptide) | > 9950 nM | 0.148 nM | 98.2% | 1.73 nM | 102% |  |  |  |  |  |  | 
6 | Y-Aib-EGT-αMeF(2F)-TSD-4Pal-SI-αMeL-LD-Orn-K((2-[2-(2-Amino-ethoxy)-ethoxy]-acetyl)2-(εK)-CO-(CH2)12-CO2H)AQ-Aib-EFI-(D-Glu)-αMeY-LIEGGK((2-[2-(2-Amino-ethoxy)-ethoxy]-acetyl)2-(εK)-CO-(CH2)12-CO2H)-NH2 (peptide) | > 9950 nM | 0.335 nM | 86.2% | 11.3 nM | 103% |  |  |  |  |  |  | 
7 | Y-Aib-EGT-αMeF(2F)-TSD-4Pal-SI-αMeL-LD-Orn-K((εK)-(γ-Glu)-CO-(CH2)12-CO2H)AQ-Aib-EFI-(D-Glu)-αMeY-LIEGGK((εK)-(γ-Glu)-CO-(CH2)12-CO2H)-NH2 (peptide) | > 9950 nM | 2.19 nM | 85.6% | 24.3 nM | 107% |  |  |  |  |  |  | 
8 | Y-Aib-EGT-αMeF(2F)-TSD-4Pal-SI-αMeL-LD-Orn-K((εK)-(εK)-(γ-Glu)-CO-(CH2)12-CO2H)AQ-Aib-EFI-(D-Glu)-αMeY-LIEGGK((εK)-(εK)-(γ-Glu)-CO-(CH2)12-CO2H)-NH2 (peptide) | > 9950 nM | 0.939 nM | 79.3% | 18 nM | 109% |  |  |  |  |  |  | 
9 | Y-Aib-EGT-αMeF(2F)-TSD-4Pal-αMeS-I-αMeL-LD-Orn-K((2-[2-(2-Amino-ethoxy)-ethoxy]-acetyl)2-(γ-Glu)-CO-(CH2)12-CO2H)AQ-Aib-EFIK((2-[2-(2-Amino-ethoxy)-ethoxy]-acetyl)2-(γ-Glu)-CO-(CH2)12-CO2H)-αMeY-…-NH2 (peptide) | > 9950 nM | 2.03 nM | 80.4% | 17.9 nM | 108% |  |  |  |  |  |  | 
10 | YXEGTXTSDXXIXLDXKAQXEFIXXLIKGGPSSGAPPPS (Y-Aib-EGT-αMeF(2F)-TSD-4Pal-Aib-I-αMeL-LD-Orn-K((2-[2-(2-Amino-ethoxy)-ethoxy]-acetyl)2-(γ-Glu)-CO-(CH2)10-CH3)AQ-Aib-EFI-(D-Glu)-αMeY-LIK((2-[2-(2-Amino-ethoxy)-ethoxy]-acetyl)2-(γ-Glu)-CO-(CH2)10-CH3)GGPSSGAPPPS-NH2) [Example 334] |  |  |  |  |  | > 9950 nM | 0.00987 nM | 103% | 0.131 nM | 104% | 8.67 nM | 0.618 nM
